In article PMC4449314:
“And” between values parts separate entries of the source, which are not always exact repeats. Equal values may be shown once.

Assays:
[1] = target: HA-tagged human DAP12 (full length, both native cysteines), in 293T cells (human), O43914; test: non-reducing SDS-PAGE of disulfide-linked products after anti-HA IP; conditions: remark: other sources report otherwise
[2] = target: HA-tagged human DAP12 wild type, in vitro translated with ER microsomes (human), O43914; test: as above; conditions: remark: other sources report otherwise

Row | stoichiometry N [1] | stoichiometry N [2] | Binder
1 | 2 and 3 and 4 |  | HA-tagged human DAP12 (full length, both native cysteines), in 293T cells, O43914 22-113 (natural protein) LRPVQAQAQSDCSCSTVSPGVLAGIVMGDLVLTVLIALAVYFLGRLVPRGRGAAEAATRKQRITETESPYQELQGQRSDVYSDLNTQRPYYK
2 |  | 3 and 4 | HA-tagged human DAP12 wild type, in vitro translated with ER microsomes, O43914 22-113 (natural protein, here or on the partner: 35S-methionine/cysteine labelled; 35S-methionine/cysteine labelled) LRPVQAQAQSDCSCSTVSPGVLAGIVMGDLVLTVLIALAVYFLGRLVPRGRGAAEAATRKQRITETESPYQELQGQRSDVYSDLNTQRPYYK
